± gives the standard deviation of the averaged measurements.
Each sequence was assayed on Saccharomyces cerevisiae (assay: protein stability index of tFT-peptide fusion (C-terminal peptide) (PSI (0-1 scale)); higher = more stable (slower turnover)). Conditions: genetic background: wild type; temperature: 30 C.
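Further: PSI is a weighted mean of sequencing reads over stability bins, variants kept only with over 10 reads, mCherry proximal and sfGFP distal, peptide attached via GGGS linker.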

VGILHCELVDVS and VGIPKEADKGGF are within error of each other in protein stability index: 0.735 ± 0.17 for the first, 0.704 ± 0.035 for the second.

VGLGVLWVMGKV and VGLTNSHTHVRR are within error of each other in protein stability index: 0.667 ± 0.082 for the first, 0.767 ± 0.019 for the second.

VGNSLRCRGGWR and VGPFSSSRIGTS are within error of each other in protein stability index: 0.628 ± 0.069 for the first, 0.6003 ± 0.0019 for the second.

First: VGPGVLVLGVGA
Second: VGPRFAYLDVAA
The protein stability index of the first is higher: 0.68 ± 0.035 for the first, 0.5644 ± 0.0031 for the second.

Going from VGPSGLIRCSFC to VGRAGMPGSAES, the protein stability index falls from 0.712 ± 0.029 to 0.66 ± 0.022.

Compared with VGRARRKGGGVG, VGRGWSSGGGGD is higher in protein stability index: 0.6384 ± 0.0024 for the first, 0.682 ± 0.023 for the second.

VGRSRNGAQSNR and VGSAENQHTGRM are within error of each other in protein stability index: 0.65 ± 0.015 for the first, 0.678 ± 0.018 for the second.

VGSSRWRHVGRR and VGSVWGDCLGYL are within error of each other in protein stability index: 0.6742 ± 0.0063 for the first, 0.701 ± 0.049 for the second.

VGTPPSEVGVLA and VGVLLGPVWFSV are within error of each other in protein stability index: 0.628 ± 0.035 for the first, 0.684 ± 0.042 for the second.

VGVPAGQRRLAS and VGVRCCPRLRFG are within error of each other in protein stability index: 0.718 ± 0.089 for the first, 0.695 ± 0.061 for the second.

VGVSEVGRGWAT and VGVSFSFGSIFL are within error of each other in protein stability index: 0.71 ± 0.062 for the first, 0.687 ± 0.022 for the second.

First: VGVWAGVVLLGG
Second: VGWQGRWWLWGG
The protein stability index of the first is higher: 0.825 ± 0.18 for the first, 0.568 ± 0.03 for the second.

VGWSWTSWTKGD and VHAGVLTMADPT are within error of each other in protein stability index: 0.661 ± 0.021 for the first, 0.653 ± 0.05 for the second.

Going from VHIVTLGGVLSF to VHRRRVSVGGGV, the protein stability index rises from 0.608 ± 0.0074 to 0.69044 ± 0.00032.

Going from VIACTFLSCSFS to VIGEWWPVSGQH, the protein stability index rises from 0.531 ± 0.02 to 0.718 ± 0.014.

VIISDPNKDTRL and VILTAISPAFSV are within error of each other in protein stability index: 0.645 ± 0.066 for the first, 0.647 ± 0.013 for the second.

VIQCIGANGAII and VIRQVKFDRKCS are within error of each other in protein stability index: 0.645 ± 0.052 for the first, 0.681 ± 0.068 for the second.

VISKIAIKAKER and VKIYPSHGKVRD are within error of each other in protein stability index: 0.665 ± 0.047 for the first, 0.6901 ± 0.00096 for the second.

VKKVSSVGGREG and VKLEEKNTINKV are within error of each other in protein stability index: 0.643 ± 0.1 for the first, 0.668 ± 0.1 for the second.

Compared with VKSGSTALRVNS, VKSQRISVMIKK is higher in protein stability index: 0.607 ± 0.051 for the first, 0.689 ± 0.022 for the second.

First: VLCCFLFGFLLV
Second: VLDFRGELGLLG
The protein stability index of the first is lower: 0.576 ± 0.011 for the first, 0.699 ± 0.025 for the second.

VLEVLKTGKKIM and VLGGRWDGVGGV are within error of each other in protein stability index: 0.692 ± 0.032 for the first, 0.661 ± 0.064 for the second.

Going from VLGLGVVACWAV to VLGRRGLVWKRV, the protein stability index rises from 0.569 ± 0.013 to 0.5993 ± 0.0033.

First: VLHFIFLCRCPV
Second: VLICGLNYLSLC
The protein stability index of the first is lower: 0.497 ± 0.011 for the first, 0.64 ± 0.022 for the second.

VLIEWKGSREKY and VLIRRLPFTSYL are within error of each other in protein stability index: 0.824 ± 0.21 for the first, 0.6365 ± 0.0034 for the second.

VLKGIVKQTRRG and VLKRYILRNEKD are within error of each other in protein stability index: 0.685 ± 0.058 for the first, 0.697 ± 0.027 for the second.

VLLARVRRSSDS and VLLGFSDYLRVT are within error of each other in protein stability index: 0.649 ± 0.093 for the first, 0.698 ± 0.079 for the second.

Compared with VLLGTVRCCFLG, VLLLRPTPPLFH is higher in protein stability index: 0.556 ± 0.022 for the first, 0.663 ± 0.046 for the second.

VLLLSRPLFPFS and VLLMRSARTAGA are within error of each other in protein stability index: 0.669 ± 0.031 for the first, 0.69 ± 0.021 for the second.

First: VLLRKLLCPGYV
Second: VLLRRRASSISG
The protein stability index of the first is lower: 0.598 ± 0.016 for the first, 0.671 ± 0.043 for the second.

Compared with VLPHFSLSTPSP, VLQEFTFPKVGL is lower in protein stability index: 0.7493 ± 0.0052 for the first, 0.675 ± 0.015 for the second.

Compared with VLSGPQVVWSES, VLSLLGVLFCLF is lower in protein stability index: 0.679 ± 0.017 for the first, 0.634 ± 0.028 for the second.

VLSPVFLISLFS and VLTSLVRGVFTG are within error of each other in protein stability index: 0.552 ± 0.016 for the first, 0.632 ± 0.069 for the second.

Going from VLVSVSVPLRGR to VLWIWRGFRGLG, the protein stability index falls from 0.78 ± 0.1 to 0.626 ± 0.011.

First: VMAVARIEVKMR
Second: VMGYCNWCVIRQ
The protein stability index of the first is lower: 0.587 ± 0.024 for the first, 0.694 ± 0.054 for the second.

Compared with VMWNLVCLRRSQ, VNEEGCDILVRT is higher in protein stability index: 0.6271 ± 0.0012 for the first, 0.757 ± 0.013 for the second.

VNPAFRTSICHH and VNTISRKIPPIA are within error of each other in protein stability index: 0.584 ± 0.12 for the first, 0.648 ± 0.041 for the second.

Going from VNVSLFWFGTYL to VPEVRRTDGRVR, the protein stability index rises from 0.61 ± 0.054 to 0.74 ± 0.014.

VPFGPLRPALYL and VPGASSSLSSSP are within error of each other in protein stability index: 0.708 ± 0.018 for the first, 0.667 ± 0.077 for the second.

Going from VPLPGAAGATLL to VPLPLVPCARIY, the protein stability index falls from 0.773 ± 0.091 to 0.627 ± 0.0093.

Compared with VPLYVDLYLSGA, VPNTFVGVLICP is lower in protein stability index: 0.721 ± 0.043 for the first, 0.607 ± 0.026 for the second.

Compared with VPPFGPTPLASI, VPPHLLLSLSPP is lower in protein stability index: 0.797 ± 0.073 for the first, 0.635 ± 0.02 for the second.

VPPRPPLPPRPP and VPPSYDLPLFPF are within error of each other in protein stability index: 0.625 ± 0.027 for the first, 0.632 ± 0.013 for the second.

Going from VPSAFLYLVGSL to VPSANAQTPSTC, the protein stability index rises from 0.591 ± 0.01 to 0.717 ± 0.071.

VPSGVWGVLGFA and VPSPFIPVSPTL are within error of each other in protein stability index: 0.667 ± 0.048 for the first, 0.669 ± 0.012 for the second.

VPSSCFLLDLPP and VPSSVLIPRPLF are within error of each other in protein stability index: 0.648 ± 0.047 for the first, 0.72 ± 0.081 for the second.

VPVITLGSRISG and VQDFTFLLPLAP are within error of each other in protein stability index: 0.658 ± 0.0088 for the first, 0.692 ± 0.17 for the second.

VQSSLSDFYVSS and VQSVDVLLISSL are within error of each other in protein stability index: 0.707 ± 0.061 for the first, 0.642 ± 0.032 for the second.

First: VQSWGGRGMVVW
Second: VQTHPFWFPTLL
The protein stability index of the first is higher: 0.719 ± 0.036 for the first, 0.573 ± 0.07 for the second.

VRARSTSCGIWC and VRARTAFVPLPA are within error of each other in protein stability index: 0.692 ± 0.045 for the first, 0.727 ± 0.097 for the second.

VRATSMWRSRGR and VRDLDMEEISRY are within error of each other in protein stability index: 0.688 ± 0.053 for the first, 0.727 ± 0.05 for the second.

VRDLGSPFIVYR and VRGLGFVSWFFL are within error of each other in protein stability index: 0.64 ± 0.059 for the first, 0.651 ± 0.025 for the second.

VRGRVGYFIVRK and VRGSLGQGNDTA are within error of each other in protein stability index: 0.642 ± 0.044 for the first, 0.706 ± 0.03 for the second.

Going from VRINNIGKRVNR to VRKGSERKKAGN, the protein stability index falls from 0.706 ± 0.025 to 0.6686 ± 0.0043.

VRPQHIITSGSC and VRRGGGVGGYGI are within error of each other in protein stability index: 0.739 ± 0.15 for the first, 0.734 ± 0.084 for the second.

Going from VRRRANVRVLRD to VRRRKLAKCEVN, the protein stability index falls from 0.688 ± 0.077 to 0.474 ± 0.058.

First: VRRTRGGLRGWS
Second: VRRWAVSSAFVG
The protein stability index of the first is higher: 0.6987 ± 0.0053 for the first, 0.628 ± 0.054 for the second.

VRWTVAWAVGAT and VRYGQRGTFGLL are within error of each other in protein stability index: 0.689 ± 0.12 for the first, 0.6901 ± 0.0019 for the second.

VSAPLGRFSGLV and VSDMILSATFCM are within error of each other in protein stability index: 0.685 ± 0.036 for the first, 0.643 ± 0.042 for the second.

VSDVIPRSRCVR and VSGCVCAAADVL are within error of each other in protein stability index: 0.6884 ± 0.0024 for the first, 0.696 ± 0.027 for the second.

First: VSGCVMIYGRTV
Second: VSGSVVLHTVIP
The protein stability index of the first is higher: 0.724 ± 0.027 for the first, 0.658 ± 0.017 for the second.

VSGVLPGALFPL and VSGYGSSQDDVR are within error of each other in protein stability index: 0.684 ± 0.053 for the first, 0.6397 ± 0.0056 for the second.

VSIGGLLGCVLF and VSMSACSPGGMS are within error of each other in protein stability index: 0.692 ± 0.048 for the first, 0.646 ± 0.02 for the second.

VSNKWATANKYG and VSPGLFRSPPHY are within error of each other in protein stability index: 0.644 ± 0.051 for the first, 0.664 ± 0.011 for the second.

VSPLPSPVPLLP and VSPNSFVGRPCF are within error of each other in protein stability index: 0.69 ± 0.076 for the first, 0.717 ± 0.072 for the second.

First: VSPSPIPSMPVI
Second: VSREWNVSIDVF
The protein stability index of the first is higher: 0.71 ± 0.078 for the first, 0.495 ± 0.027 for the second.

VSRGGMSGIVCL and VSRGIFSGRGGV are within error of each other in protein stability index: 0.773 ± 0.11 for the first, 0.736 ± 0.018 for the second.

VSSCLHDYSAIY and VSSTFGQDTSKR are within error of each other in protein stability index: 0.744 ± 0.029 for the first, 0.715 ± 0.024 for the second.

VSVVVGLLFVGF and VSWLSTKCWTIL are within error of each other in protein stability index: 0.5 ± 0.065 for the first, 0.563 ± 0.038 for the second.

VSYLLPPPPPPP and VTGDRGGVRGGE are within error of each other in protein stability index: 0.682 ± 0.046 for the first, 0.685 ± 0.012 for the second.

Going from VTHNTLLRTKVV to VTLRLCGQSVVV, the protein stability index rises from 0.518 ± 0.0069 to 0.585 ± 0.0085.

Compared with VTLWQLANNTLG, VTNVTSETRVLT is higher in protein stability index: 0.626 ± 0.028 for the first, 0.6816 ± 0.0013 for the second.

VTPLPHPPLPPP and VTPPGFTYVLEV are within error of each other in protein stability index: 0.756 ± 0.089 for the first, 0.619 ± 0.058 for the second.

VVAFSLLSGFLV and VVALHYNYFSRL are within error of each other in protein stability index: 0.636 ± 0.04 for the first, 0.613 ± 0.09 for the second.

VVDSGLFLAASR and VVDWRRAAKREG are within error of each other in protein stability index: 0.643 ± 0.08 for the first, 0.685 ± 0.051 for the second.

VVFLWGVFGGSI and VVGAGGLCNMDV are within error of each other in protein stability index: 0.688 ± 0.055 for the first, 0.635 ± 0.029 for the second.

VVGDGVWCLSVG and VVGRLERRLREQ are within error of each other in protein stability index: 0.721 ± 0.046 for the first, 0.674 ± 0.017 for the second.

First: VVLGFGPRFRVV
Second: VVLGLWGLCCGC
The protein stability index of the first is higher: 0.584 ± 0.018 for the first, 0.527 ± 0.029 for the second.

VVLVGVVGGMVG and VVRGKRRVRWLR are within error of each other in protein stability index: 0.639 ± 0.018 for the first, 0.625 ± 0.049 for the second.

First: VVSFGRIGGVGR
Second: VVSIIQDITLIS
The protein stability index of the first is lower: 0.675 ± 0.027 for the first, 0.7094 ± 0.0034 for the second.
